This passage reports binding result and Kd results from publication PMC10720262 (Cell Reports, 2023).

B1: CL-531237 (antibody, V domains shown)
VH: QVQLVESGGGVVQPGTSLRLSCVASGFTFSNFGIHWFRQAPGKGLEWVSLIWYDGKNKFYAESVTGRFTISRDNSKNTVYLQMSSLRAEDTAVYYCARSYYYDSGNYFDYWGQGTLVTVSS
VL: DIQMTQSPSSVSASVGDRITITCRASQGISSRLAWFQQKPGKAPNFLIYGTSSLQSGVPSRFSGSGSGTDFTLTISSLQPEDSATYYCQQANSYPWTFGQGTKVEIK
B2: CL-531271 (antibody, V domains shown)
VH: QVQLVESGGGEVQPGRSLRLSCAASGFTFSNYGMHWVRQAPGKGLEWVALIWYDGNNKFYADSVNGRFTISRDNSNNTLYLQMNSLRAEDTGVYYCARSFYYVSGNFFDYWGQGTLVTVSS
VL: DIPMTQSPSSVSASVGDRVTITCRASQGISTWLAWYQQKPGKAPKFLIYAASSLQSGVPSRFSGSGSGTDFTLTIYSLQPEDFATYYCQQGNSFPWTFGQGTKVEIK
B3: CL-514146 (antibody, V domains shown)
VH: QVQLVESGGGVVQPGRSLRLSCAVSGFTFSNSGMHWVRQAPGKGLEWVAIIWYDGNNKFYADSVKGRFTISRDNSKNTLYLQMNSLRAEDTSIYYCARAYPSGNYGDKYGMDVWGQGTTVTVSS
VL: DIQMTQSPSTLSASVGDRVTITCRASQSISSWLAWFQQKPGNAPKLLIYKASSLESGVPSRFSGSGSGTEFTLTINSLQPDDFATYYCQQYNSFWTFGQGTKVEIK
B4: CL-514174 (antibody, V domains shown)
VH: QVQLVESGGGVVQPGRSLRLSCVASGFTFSGSGMHWVRQSPGKGLEWVAIIWYDGSNKFYADSVQGRFTISRDNSKNTLYLQMNSLRVEDTGVYYCARAYLSGNYGDKYGMDVWGQGTTVTVSS
VL: DIQMTQSPSTLSASVGDRVTITCRASQSISSWLAWFQQKPGKAPKLLIYKASSLESGVPSRFSGSGSGTEFTLTINSLQPDDFATYFCQQYNYYWTFGQGTKVEIK
B5: CL-515284 (antibody, V domains shown)
VH: QVQLVGSGGGVVQSGRSLRLSCAASGFTFSNFGMHWVRQTPDKGLEWLAIIWYDGSHKFYVDSVKGRFTISRDNSMNTLFLQMNSLRAEDTGVYYCVRSWNYADSKYGMDVWGQGTTVTVSS
VL: DIQMTQSPSTLSASVGDRVTITCRASQSISSWLAWYQQKPGKAPNLLIYKASSLESGVPSRFSGSGSGTEFTLTISSLQPDDFATYYCQQYYNYWTFGQGTKVEIK
B6: CL-531912 (antibody, V domains shown)
VH: LVQLVESGGGVVQPGRSLRLSCAASGFTFSSSGMHWVRQAPGKGLEWVAIIWYDGSNKFYADSVKGRFTISRDNSKNTLYLQMNSLRAEDTAVYYCARAYVSGSHGDKYGMDVWGQGTTVTVSS
VL: DIQMTQSPSTLSASVGDRVTITCRASQSISSWLAWFQQKPGKAPKLLIYKASSLESGVPSRFSGSGSGTEFTLTINSLQPDDFATYFCQQYNNYWTFGQGTKVEIK
B7: CL-531383 (antibody, V domains shown)
VH: QVQLVESGGGVVQPGRSLRLSCAASGFTFSSFGMHWVRQTPVKGLEWVALIWYDGSHKFYADSVRGRFIISRDNSKNTLFLQMNSLRAEDTAIYYCAKVINYGSGNYYNNYKYTMDVWGQGTTVTVSS
VL: DIQMTQSPSTLSASVGDRVTITCRASQSISSWLAWYQQKPGKAPKVLIYKASSLESGVPSRFSGSGSGTEFTLTISSLQPDDFATYYCQQYNTYWTFGQGTKVEIK
B8: CL-532151 (antibody, V domains shown)
VH: QVQLVESGGGVVQPGGSLRLSCAASGFTFSGSGMHWVRHAPGKGLEWVAIIWYDGSNKFYADSVKGRFTISRDNSRNTLYLQMNSLRAEDTAVYYCARAYVSGNYGDKYGMDVWGQGTTVTVSS
VL: DIQMTQSPSTLSASVGDRVTITCRASQSISNWLAWFQQKPGKAPKLLIYKASSLESGVPSRFSGSGSGTEFTLTINSLQPDDFATYFCQQYNYYWTFGQGTKVEIK
B9: CL-531969 (antibody, V domains shown)
VH: QVQLVESGGGVVQPGRSLRLSCAASGFTFSSSGMHWVRQAPGMGLEWVAIIWYDGSNKFYADSVKGRFTISRDNSKNTLYLQMNSLRAEDTAVYYCARAYVSGNYGDNYGMDVWGQGTTVTVSS
VL: DIQMTQSPSTLSASVGDRVTITCRASQSISSWLAWFQQKPGKAPKLLIYKASSLESGVPSRFSGSGSGTEFTLTINSLQPDDFATYFCQQYNYYWTFGQGTKVEIK
B10: CL-532061 (antibody, V domains shown)
VH: QVQLVESGGGVVQPGRSLRLSCVASRFTFSNYGMHWVRQTPGKGLEWVAIIWYDGSNKFYGDSVKGRFTISRDNSRNTLYLQMNNLRAEDTAVYYCARAYDDFVDHDKYGMDVWGQGTTVTVSS
VL: DIQMTQSPSTLSASVGDRVTISCRASQSISIWLAWYQQKSGKAPKLLIYKASRLESGVPSRFSGSGSGTEFTLTISSLQPDDFATYYCQQYNSYWTFGQGTKVEIK
B11: CL-515341 (antibody, V domains shown)
VH: QVYLVESGGGVVQPGKSLRLSCAASGFTFSNYGMHWVRQAPGKGLEWVAIIWHDGSNKFYSDSVRGRFTISRDNSQNTLYLQMNSLSAEDTALYFCAKDIGYSNTWDYFDYWGQGTLVTVSS
VL: EIVLTQSPATLSLSPGERATLSCRASQSVNSFLAWYQQKPGQAPRLLIYDASNRATDIPDRFSGSGSGTDFTLTIRSLEPEDFAVYFCQQRSKWFTFGGGTTVEMK
B12: CL-531286 (antibody, V domains shown)
VH: QVQLVESGGGLVQPGRSLRLSCAASGFTFSSSGMHWVRQAPGKGLEWVAVIWYDGSNKFYADSVKGRFTISRDNSKNTLYLQMNSLRAEDTAVYYCARSGYDILTGYFNFFDPWGQGTLVTVSS
VL: EIVLTQSPGTLSLSPGERATLSCRASQSVSSSHLAWYQQKPGQAPRLLIYGASSRATGIPDRFSGSGSGTDFTLTISRLEPEDFAVYYCHQYVSSFTFGPGTKVDFK
B13: CL-531325 (antibody, V domains shown)
VH: QVHLVESGGGVVQPGKSLRLSCAASGFTFSNFGMHWVRQAPGKGLEWVALIWYDGSHKFYADSVQGRFTISRDNSKNTLFLQMNSLRAEDTAIYYCAKVISYGSVNYYNNYKYTMDVWGQGTTVTVSS
VL: not shown
B14: CL-514716 (antibody, V domains shown)
VH: QIQLVESGGGVVQPGRSLRLSCAASGFTFSTYGMHWVRQAPGKGLEWVAVIWYDGSNKYYADSVQGRFTISRDNSKNTLYLQMNSLRAEDTAIYYCTTVGPIPFDYWGQGTLVTVSS
VL: DIVMTQTPLSSPVILGQPASISCRSSQSLVHSSGNTYLSWLQQRPGQPPRLLIYKTFKRLSGVPDRFSGSGAGTDFTLKISRVEAEDVGVYYCLQSTQFPLTFGGGTKVEIK
B15: Ky15.8 (antibody, V domains shown)
VH: QVQLVESGGNVVQPGRSLRLSCTASGFTFSSYGMHWVRQAPDKGLEWVAIIWYDGGNKFYADSVKGRFTISRDNSKDTLYLQMNSLRAEDTAVYYCAKAWYKIDDKYSMDVWGQGTTVTVSS
VL: not shown
notes: source: CHO-3E7, purified (MabSelect SuRe LX)
B16: Ky230 (antibody, V domains shown)
VH: QVQLVESGGGVVQPGRSLRLSCAASGFTFSDYGMHWVRQAPGKGLEWVAIIWHDGSNKYYVDSVKGRFTISRDNSKNTLYLQMNSLRAEDTAVYYCARAASSFGSGFDYWGQGTLVTVSS
VL: DVVMTQSPLSLPVTLGQPASIFCRSSQSLVYSDGNTYLNWFQRRPGQSPRRLIYKVSDRDSGVPDRFSGSGSGTDFTLQISRVEAEDVGVYYCMQGTHWPPTFGQGTKVEIK
notes: as for B15
B17: Ky15.10 (antibody, V domains shown)
VH: QVQLVESGGGVVQPGRSLRLSCAASGFTFSNSGMHWVRQVPGKGLEWVAIIWYDGSNKYYADSVKGRFSVSRDNSENTLYLQMSNLRAEDTAVYYCVRAYFDSENLYDYYGMDVWGQGTTVTVSS
VL: DIQMTQSPSTLSASVGDRVTITCRASQSISRWLAWFQKKPGKAPKLLIYTASNLESGVPSRFSGSGSGTEFTLTISSLQPDDFATYYCQQYYNYWTFGQGTKVEVK
notes: as for B15
B18: Ky15.7 (antibody, V domains shown)
VH: QVQVVESGGGAVQPGRSLRLSCAASGFTFSNRGMHWVRQTPGKGLEWVAIIWYDGGNKFYADSVKGRFTISRDNSKNTLYLQMNSLRDEDTAVYYCVRAGDWKADKYTMDVWGQGTTVTVSS
VL: DIQMTQSPSTLSASVGDRVTITCRASQSISSWLAWYQQKPGKAPKVLIYQASSLESGVPSRFSGSGSGTEFTLTISSLQPDDFATYYCQQYNSYWTFGQGTKVEIK
notes: as for B15
B19: Ky15.11 (antibody, V domains shown)
VH: QVQLVESGGGVVQPGRSLRLSCEASGFTFSNFGMHWVRQTPVKGLEWVAIIWFDGSYKYYTDSVKGRFTISRDNSKNTLYLQMNSLRAEDTAVYYCARARKGQRSDYYGSETSYTFDNWGQGTLVTVSS
VL: DIQMTQSPSTLSASVGDRVTITCRASQSINGWLAWYQQKPGKAPKFLIYKASILESGIPSRFSGSGSGTEFTLTISSLQPDDFATYYCQQYSSYWTFGQGTKVEIK
notes: as for B15
B20: Ky224 (antibody, V domains shown)
VH: QVQLVESGGGVVQPGRSLRLSCAASGFTFSVYGMHWVRQAPGKGLEWVAVIWYDGSNKIYADSVKGRFTISRDNSKNTLYLQMDSLSAADTAVYYCAKIGSSSFDYWGQGTLVIVSS
VL: DIVMTQTPLSSPVTLGQPASISCRSSQSLVHSNGITYLSWLQQRPGQPPRLLLYEISNRFSGVPDRFSGSGTGTDFTLKISRVEAEDVGVYYCMQTTQFPITFGQGTRLEIK
notes: as for B15
B21: Ky15.1 (antibody, V domains shown)
VH: QVQLVESGGGVVQPGRSLRLSCAASGFTFSNFGMHWVRQTPDRGLEWVAIIWFDGSNTFYADSVKGRFTISRDNYKNTLYLQMNSLRAEDTAVYFCARSFYSDSAGSLFDYWGQGTLVTVSS
VL: DIQMTQSPSTLSASVGDRVTITCRASQSISSWVAWYQQKPGKAPKLLIYKASDLETGVPSRFSGSGSGTEFTLTISGLQPDDFVTYYCLQNMRYWTFGQGTKVEIK
notes: as for B15

Chain of recombinant full-length PfCSP (Plasmodium falciparum circumsporozoite protein, strain NF54) (P19597 20-375): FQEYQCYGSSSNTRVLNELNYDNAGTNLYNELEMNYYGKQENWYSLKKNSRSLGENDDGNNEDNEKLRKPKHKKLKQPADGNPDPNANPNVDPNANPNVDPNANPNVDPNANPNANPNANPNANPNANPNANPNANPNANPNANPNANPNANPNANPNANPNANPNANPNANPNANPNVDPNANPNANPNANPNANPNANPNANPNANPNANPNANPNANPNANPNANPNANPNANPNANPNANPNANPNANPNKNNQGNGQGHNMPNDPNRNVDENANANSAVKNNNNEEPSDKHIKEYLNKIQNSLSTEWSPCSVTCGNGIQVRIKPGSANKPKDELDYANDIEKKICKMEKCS

The first experiment addresses recombinant full-length PfCSP (Plasmodium falciparum circumsporozoite protein, strain NF54) (Plasmodium falciparum NF54, UniProt P19597).
Assay: not given
Details: not given
On to B1, for which the binding result is recorded as “binds”.
B2: the binding result was “binds”.
As to B3, the binding result was “binds”.
In the case of B4, the binding result is “binds”.
Turning to B5, the binding result is “binds”.
Same read-out and setting: then B6, with “binds”; and B7, with “binds”.
B8: the binding result is given as “binds”.
For the molecule B9, the binding result was “binds”.
In the case of B10, the binding result is “binds”.
B11: the binding result is on record as “binds”.
In the case of B12, the binding result was “binds”.
The same measure, in the same setting: then B13, with “binds”; and B14, with “binds”.

The target of a further experiment is T1, NANP6 peptide (Plasmodium falciparum NF54).
T1 construct: source: synthetic peptide (CPC Scientific)
The experiment is described as follows: SPR; Carterra LSA; mAb amine-coupled to a CMD200M chip, peptide titrated in 2-fold steps up to 8 ug/mL without regeneration; 25 C; HBSTE (10 mM HEPES pH 7.4, 150 mM NaCl, 3 mM EDTA, 0.01% Tween 20); 1:1 Langmuir model; mean of triplicates; KD includes avidity for antigens with several repeats. To be noted: both partners purified.
With B15, the Kd was no more than 0.0312 nM.
Molecule B16 came in with a Kd of 0.257 nM.
Still for that read-out and setting: then B17, with 0.0153 nM; and B18, with 0.113 nM; and B19, with no more than 0.0357 nM.
On to B20, for which the Kd was 1.34 nM.
For B21, the Kd was 0.0384 nM.
